Data reported in patent US20230406936A1 (IMMUNOURCHIN, published 2023).
Blank lines part the entries; values can stand above or below the binder they belong to.

Key:
[1] = target: T1, recombinant PD-L1-3-HIS (secretory splice variant PD-L1-3 with HIS tag, from HEK293 cells) (human, UniProt Q9NZQ7 19-178); experiment: direct ELISA, 50 ng/well rPD-L1-3-HIS coated
T1 construct: The range 19-178 comes from the background paragraph; also called rPD-L1-3-HIS; sPD-L1-3-HIS; not shown: HIS tag

[2] = target: T2, pan IgC segment of human PD-L1, expressed on MC38 / CHO-K1 cells (human, UniProt Q9NZQ7 132-238); experiment: flow cytometry on cells expressing pan IgC
T2 construct: also called PD-L1-pan-IgC; hPD-L1 pan-IgC segment
T2 sequence (Q9NZQ7 132-238): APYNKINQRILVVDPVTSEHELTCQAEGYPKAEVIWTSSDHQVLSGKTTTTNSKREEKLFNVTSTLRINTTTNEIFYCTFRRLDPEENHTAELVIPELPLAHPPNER
Experimental: (§1) MC38/CHO-K1 cells expressing either PD-L1 or pan IgC were used as positive detection cells. MC38/CHO-K1 wild type cells and PD-L2-expressed MC38/CHO-K1 cells were used as negative control. About 1×10⁵ negative and positive cells were stained with either sera from immunized mice (1:100, 1:1000, 1:10000 dilutions) or culture supernatant (50 μl) from hybridoma, or mouse monoclonal antibody (concentrations as indicated in the figures), or other humanized antibodies (concentrations as indicated in the figures), and incubated at 4° C. for 15 min. After washed with PBS, the cells were stained with a PE conjugated goat anti mouse IgG (BD biosciences) and incubated in dark place at 4° C. for 15 min. After washed with PBS, the stained cells were analyzed by a flow cytometry (NovoCyte, Acebio, Hangzhou).
(§2) MC38 cells expressing either hPD-L1 or pan-IgC were used as positive detection cells, whereas, both hPD-L2 expressed and parental MC38 cells were used as negative detection cells.
(§3) 50 μl/well of hybridoma culture supernatant or 100 ng/well mouse monoclonal antibody were mixed with 1×10 5 of either positive or negative detection cells at 4° C. for 15 min. After washed with PBS, the cells were stained with a PE conjugated goat anti mouse antibody (BD biosciences) at 4° C. for 15 min in dark place.

[3] = target: T3, native form of secretory sPD-L1-3, in culture supernatant of transfected MC38 cells (human, UniProt Q9NZQ7 19-178); experiment: indirect (sandwich) ELISA: antibody coated, MC38 culture supernatant with sPD-L1-3
T3 construct: Untagged, secreted by MC38 cells; also called sPD-L1-3/12
T3 sequence (Q9NZQ7 19-178): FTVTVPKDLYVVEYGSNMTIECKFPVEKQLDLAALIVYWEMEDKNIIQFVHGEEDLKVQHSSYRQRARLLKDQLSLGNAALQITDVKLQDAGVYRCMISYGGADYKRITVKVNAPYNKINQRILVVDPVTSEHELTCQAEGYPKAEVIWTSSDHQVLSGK

[4] = target: T4, human PD-L1 (membrane-bound type), expressed on MC38 / CHO-K1 cells (human, UniProt Q9NZQ7 19-290); experiment: flow cytometry on MC38 cells expressing hPD-L1
T4 construct: Full-length gene transfected into MC38 and CHO-K1 cells; also called hPD-L1
T4 sequence (Q9NZQ7 19-290): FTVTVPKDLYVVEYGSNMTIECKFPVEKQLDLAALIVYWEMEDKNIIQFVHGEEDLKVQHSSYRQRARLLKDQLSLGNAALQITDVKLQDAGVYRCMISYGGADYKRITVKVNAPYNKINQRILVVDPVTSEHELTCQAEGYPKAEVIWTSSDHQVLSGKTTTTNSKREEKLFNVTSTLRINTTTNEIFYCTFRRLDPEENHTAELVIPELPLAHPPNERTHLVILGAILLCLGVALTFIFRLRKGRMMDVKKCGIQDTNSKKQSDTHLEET
Experimental: as §1, §2, §3

[5] = target: T5, human CD80 (membrane-bound type), on cells (human, UniProt P33681 35-288); experiment: flow cytometry on cells with membrane-bound human CD80
T5 construct: whole, on cells
T5 sequence (looked up): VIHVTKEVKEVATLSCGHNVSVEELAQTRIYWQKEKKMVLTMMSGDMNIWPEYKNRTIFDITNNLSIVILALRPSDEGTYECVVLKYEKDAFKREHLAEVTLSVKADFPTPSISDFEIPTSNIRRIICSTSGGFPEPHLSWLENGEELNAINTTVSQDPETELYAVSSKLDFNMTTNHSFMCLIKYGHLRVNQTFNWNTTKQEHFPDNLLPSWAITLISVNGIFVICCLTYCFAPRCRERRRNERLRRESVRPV
From the text: FIG. 10. […] C. CHO-K1 parental cells were used as a negative control. Clone #2D10: human CD80 mouse monoclonal antibody (Elabscience, Wuhan). 2nd antibody: PE labeled goat anti-mouse antibody (BD Biosciences)
as §1

[6] = target: T6, human PD-L2 (membrane-bound type), expressed on CHO-K1 cells (human, UniProt Q9BQ51 20-273); experiment: flow cytometry on cells with membrane-bound human PD-L2
T6 construct: whole, on cells; also called hPD-L2
T6 sequence (looked up): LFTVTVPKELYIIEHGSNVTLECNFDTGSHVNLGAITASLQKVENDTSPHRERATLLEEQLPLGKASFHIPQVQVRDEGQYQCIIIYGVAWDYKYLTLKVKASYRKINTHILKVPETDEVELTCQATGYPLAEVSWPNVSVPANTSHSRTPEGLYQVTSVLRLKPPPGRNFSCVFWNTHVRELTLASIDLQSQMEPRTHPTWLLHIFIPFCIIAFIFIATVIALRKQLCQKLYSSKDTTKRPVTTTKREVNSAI

[7] = target: T2, pan IgC segment of human PD-L1, …; experiment: flow cytometry on cells with pan-IgC
[8] = target: T4, human PD-L1 (membrane-bound type), …; experiment: flow cytometry on cells with membrane-bound PD-L1
[9] = target: T3, native form of secretory sPD-L1-3, in …; experiment: ELISA with MC38 culture supernatant containing native sPD-L1-3
[10] = target: T6, human PD-L2 (membrane-bound type), …; experiment: flow cytometry on cells with membrane-bound human PD-L2; the antibody also bound the CHO-K1 parental cells

T1 sequence (Q9NZQ7 19-178, change not shown): as the sequence (Q9NZQ7 19-178) above

binding result [1]: no binding (tested: 100 ng/100 µl/well) | binding result [2]: binds | binding result [4]: binds
B1: PD-L1 mouse monoclonal antibody #19 (antibody, mouse IgG2b, V domains shown)
VH: EVQLQQSGPELVKPGASVKISCKASGSAFSSSWMNWLKQRPGQGLEWIGRIYPGDGDTNYNGKFKGKATLTADKSSSTAYMQLSSLTSVDSAVYFCARRRANHYGSNWYFDVWGAGTTVTVSS
VL: NIVLTQSPASLAVSLGQRATISCRASESVDSYGKSFMHWYQQKPGQPPKLLIYLASNLESGVPARFSGSGSRTDFTLTIDPVEADDAATYYCQQNNEDPYTFGGGTKLEIK
notes: also called mAb #19; Ab #19
binding result [3]: no binding (tested: 0.2 µg/well coated antibody)

binding result [5]: no binding | binding result [6]: no binding | binding result [7]: binds
B2: humanized PD-L1 antibody H6L5 (VH6 + VL5) (antibody, V domains shown)
VH: EVQLQQSGAEVKKPGSSVKVSCKASGSAFSSSWMNWLKQRPGQGLEWIGRIYPGDGDTNYNGKFKGRVTLTADKSSSTAYMQLSSLRSEDTAVYFCARRRANHYGSNWYFDVWGAGTTVTVSS
VL: NIVLTQSPASLSASVGDRVTISCRASESVDSYGKSFMHWYQQKPGQPPKLLIYLASNLESGVPARFSGSGSRTDFTLTIDSLQPEDFATYYCQQNNEDPYTFGGGTKLEIK

binding result [5]: no binding | EC50 [8]: 0.62 µg/mL | binding result [9]: no binding | binding result [6]: no binding
B3: humanized PD-L1 antibody H6L2 (humanized mouse monoclonal antibody #19, VH6 + VL2) (antibody, V domains shown)
VH: EVQLQQSGAEVKKPGSSVKVSCKASGSAFSSSWMNWLKQRPGQGLEWIGRIYPGDGDTNYNGKFKGRVTLTADKSSSTAYMQLSSLRSEDTAVYFCARRRANHYGSNWYFDVWGAGTTVTVSS
VL: NIVLTQSPSSLSASVGDRVTITCRASESVDSYGKSFMHWYQQKPGQPPKLLIYLASNLESGVPSRFSGSGSRTDFTLTISSLQPEDFATYYCQQNNEDPYTFGGGTKLEIK
notes: also called humanized antibody H6L2; humanized antibody #19

binding result [7]: binds
B4: humanized PD-L1 antibody H4L4 (VH4 + VL4) (antibody, V domains shown)
VH: EVQLVQSGAEVKKPGSSVKVSCKASGSAFSSSWMNWLRQRPGQGLEWIGRIYPGDGDTNYNGKFKGRVTLTADKSSSTAYMELSSLRSVDTAVYFCARRRANHYGSNWYFDVWGAGTTVTVSS
VL: NIVLTQSPASLSASVGDRVTISCRASESVDSYGKSFMHWYQQKPGQPPKLLIYLASNLESGVPARFSGSGSRTDFTLTISSLQPEDFATYYCQQNNEDPYTFGGGTKLEIK

binding result [10]: binds
B5: humanized PD-L1 antibody H5L4 (VH5 + VL4) (antibody, V domains shown)
VH: EVQLVQSGAEVKKPGASVKVSCKASGSAFSSSWMNWLRQRPGQGLEWIGRIYPGDGDTNYNGKFKGRVTLTADKSISTAYMELSRLRSVDTAVYFCARRRANHYGSNWYFDVWGAGTTVTVSS
VL: NIVLTQSPASLSASVGDRVTISCRASESVDSYGKSFMHWYQQKPGQPPKLLIYLASNLESGVPARFSGSGSRTDFTLTISSLQPEDFATYYCQQNNEDPYTFGGGTKLEIK
